Holding throughout (assay): cell-based or functional assay
The target in assay [1] is T1, wild-type mouse C140 receptor (mouse, UniProt P55086 32-399).
T1 sequence: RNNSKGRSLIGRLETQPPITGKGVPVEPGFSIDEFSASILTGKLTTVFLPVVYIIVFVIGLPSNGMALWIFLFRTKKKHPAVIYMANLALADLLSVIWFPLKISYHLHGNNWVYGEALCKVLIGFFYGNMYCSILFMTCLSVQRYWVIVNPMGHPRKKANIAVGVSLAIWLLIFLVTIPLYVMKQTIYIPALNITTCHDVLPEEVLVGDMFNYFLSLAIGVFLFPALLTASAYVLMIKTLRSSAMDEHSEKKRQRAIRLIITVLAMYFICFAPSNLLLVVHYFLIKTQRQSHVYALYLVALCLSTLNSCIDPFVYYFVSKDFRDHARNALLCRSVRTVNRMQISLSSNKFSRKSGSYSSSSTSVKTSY

Assay [2] concerns the target T2, mouse C140 receptor mutant 35Pro (mouse, UniProt P55086 32-399).
T2 sequence: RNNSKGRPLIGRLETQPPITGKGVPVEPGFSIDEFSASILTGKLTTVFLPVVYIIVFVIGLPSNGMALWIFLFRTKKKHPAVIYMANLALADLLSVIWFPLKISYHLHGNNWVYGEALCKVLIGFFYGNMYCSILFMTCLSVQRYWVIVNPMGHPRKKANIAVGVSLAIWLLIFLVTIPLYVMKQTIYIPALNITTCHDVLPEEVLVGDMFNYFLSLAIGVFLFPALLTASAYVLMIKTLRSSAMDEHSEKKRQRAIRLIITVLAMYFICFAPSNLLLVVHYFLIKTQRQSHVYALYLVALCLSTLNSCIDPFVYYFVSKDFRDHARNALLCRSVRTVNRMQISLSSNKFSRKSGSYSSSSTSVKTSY

Assay [3] addresses T3, mouse C140 receptor mutant 35Arg (mouse, UniProt P55086 32-399).
T3 sequence: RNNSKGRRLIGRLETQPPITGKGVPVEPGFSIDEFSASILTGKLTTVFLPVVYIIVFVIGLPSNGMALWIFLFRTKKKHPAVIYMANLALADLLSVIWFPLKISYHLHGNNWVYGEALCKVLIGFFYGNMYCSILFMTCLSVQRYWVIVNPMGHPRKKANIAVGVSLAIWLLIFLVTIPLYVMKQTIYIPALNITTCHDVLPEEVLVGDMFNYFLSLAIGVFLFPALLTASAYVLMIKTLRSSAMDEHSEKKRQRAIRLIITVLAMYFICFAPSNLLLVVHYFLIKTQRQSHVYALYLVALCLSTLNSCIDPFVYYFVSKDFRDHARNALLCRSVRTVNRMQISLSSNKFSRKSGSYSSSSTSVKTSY

Assay [4] has as its target T4, mouse C140 receptor mutant 35His (mouse, UniProt P55086 32-399).
T4 sequence: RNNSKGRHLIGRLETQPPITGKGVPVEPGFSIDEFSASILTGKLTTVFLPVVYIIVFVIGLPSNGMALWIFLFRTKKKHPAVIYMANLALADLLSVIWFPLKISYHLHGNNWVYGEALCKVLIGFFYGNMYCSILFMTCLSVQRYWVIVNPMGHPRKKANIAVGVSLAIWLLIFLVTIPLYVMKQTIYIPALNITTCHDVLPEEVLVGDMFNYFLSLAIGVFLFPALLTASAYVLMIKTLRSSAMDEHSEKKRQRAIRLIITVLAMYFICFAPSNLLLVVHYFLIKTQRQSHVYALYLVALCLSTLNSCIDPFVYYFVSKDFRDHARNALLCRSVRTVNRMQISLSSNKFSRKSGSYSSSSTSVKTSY

The target in assay [5] is T1, wild-type mouse C140 receptor. The source holds these as a separate data set.
For assay [6] the target is unchanged. This is another data set of the same source.

From patent US20050080234A1 (Takeda / Millennium, published 2005) come the findings set out here.

Where two headings read alike, the source gives them in different places.

As for trypsin (enzyme), the Fold increase in 45Ca in assay [1] is 6.6 fold; in assay [2], 0 fold; in assay [3] it was 0 fold; in assay [4] it was 0 fold.
Regarding SFFLRW [thrombin receptor agonist SFFLRW], the “Fold Increase in 45Ca” value in assay [5] is 1.7 fold.
Consider SLAGRL [peptide SLAGRL], for which the “Fold Increase in 45Ca” value in assay [5] was found to be 0 fold.
SAIGRL [peptide SAIGRL]: the “Fold Increase in 45Ca” value in assay [5] was 0 fold.
Take SLIGAL [peptide SLIGAL]: in assay [5], the “Fold Increase in 45Ca” value came out at 0 fold.
On the same count and under the same terms, for SLIGRA [peptide SLIGRA] the value was 8.5 fold.
Consider ALIGRL [peptide ALIGRL], for which the “Fold Increase in 45Ca” value in assay [5] amounted to 1.3 fold.
SLIARL [peptide SLIARL]: in assay [5], the “Fold Increase in 45Ca” value is 4.3 fold.
For the molecule SLIGRL [agonist peptide SLIGRL], the “Fold Increase in 45Ca” value in assay [6] is 11 fold; in assay [2], 23 fold; in assay [3] it was 15 fold; in assay [4], 23 fold; in assay [5], 15 fold.
